Values quoted from earlier work, collected in paper PMC5437010.

Biological target: factor XIa (Homo sapiens) (UniProt P03951)
Chain of UniProt P03951 (P03951 388-625): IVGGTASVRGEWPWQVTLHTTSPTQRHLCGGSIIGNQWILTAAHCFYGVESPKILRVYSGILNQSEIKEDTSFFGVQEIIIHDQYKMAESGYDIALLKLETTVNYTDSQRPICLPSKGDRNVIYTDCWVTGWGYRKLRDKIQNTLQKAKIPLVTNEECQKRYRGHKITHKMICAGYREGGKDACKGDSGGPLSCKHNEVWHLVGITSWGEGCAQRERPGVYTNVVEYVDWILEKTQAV

## KPI KPI (from UniProt P05067)
  Ki: 0.4 nM
